Reference: CN114573704A (dated 2022)

What was measured:
[1] = biological target: T1, 筛选及检测用人PD-1抗原 (human PD-1 extracellular domain with His tag, Sino Biological Cat.10377-H08H) (human, UniProt Q15116 25-167); experiment: SPR Biacore T200, antibody captured on protein A CM5 chip, PD-1-His as analyte
T1 construct: Bought product; the entry holds the extracellular domain and the His tag; also called PD-1蛋白

[2] = biological target: T2, 筛选及检测用人PD-1-Fc抗原 (human PD-1-Fc, 百英生物 B3789) (human); experiment: competition ELISA, PD-1-Fc coated, biotinylated PD-L1 as competitor, antibody titrated
T2 construct: also called 带Fc标签的PD-1融合蛋白

B1: WO2017054646中的IgG4型PD-1Ab646 (antibody, V domains shown)
VH: EVQLVESGGGLVQPGGSLRLSCAASGFTFSSYMMSWVRQAPGKGLEWVATISGGGANTYYPDSVKGRFTISRDNAKNSLYLQMNSLRAEDTAVYYCARQLYYFDYWGQGTTVTVSS
VL: DIQMTQSPSSLSASVGDRVTITCLASQTIGTWLTWYQQKPGKAPKLLIYTATSLADGVPSRFSGSGSGTDFTLTISSLQPEDFATYYCQQVYSIPWTFGGGTKVEIKR
notes: IgG4 positive control
Kd [1]: 7.75 nM | koff [1]: 0.000479 s⁻¹ | kon [1]: 61800 M⁻¹ s⁻¹ | IC50 [2]: 2.79 nM
